Measurements: publication PMC8381054

Tests used:
[1] = target: human CR2(SCR1-4)-Fc (human)
[2] = target: recombinant wild-type human C3d with its native thioester cysteine intact (C3d^17C) (human) (UniProt P01024); experiment: SEC; size exclusion chromatography of C3d^17C in solution (Supplementary Figure S2); monomer and disulphide-linked dimer
[3] = target: recombinant wild-type human C3d with its native thioester cysteine intact (C3d^17C) (human) (UniProt P01024); experiment: non-reducing SDS-PAGE; recombinant C3d^17C 'under non-reducing conditions', 'in a similar manner' to C3b (Supplementary Figure S2, not shown)

geometric mean EC50 of upregulation of CD69 on CD19+ B cells in human PBMC, with anti-IgM F(ab')2 [1] [nM] | geometric mean EC50 of upregulation of CD86 on CD19+ B cells in human PBMC, with anti-IgM F(ab')2 [1] [nM] | stoichiometry N [2] | stoichiometry N [3] | Substance
47 | 18 | – | – | chemically-linked dimeric C3d^17C (from UniProt P01024 996-1303)
139 | 59 | – | – | human C3d with a Cys to Ala mutation at position 17(C3d)/1010 (pre-pro C3) (C3d^17A) (from UniProt P01024 996-1303) (domain or fragment)
– | – | 2 | 2 | recombinant wild-type human C3d with its native thioester cysteine intact (C3d^17C) (from UniProt P01024 996-1303) (domain or fragment)
